# Source: patent US11820827B2, “Methods of treating myelodysplastic syndrome and acute myeloid leukemia with nonfucosylated anti-CD70 antibodies” (Seagen Inc., priority 2019, dated 2023)
# Key:
# [1] = test system: NOMO-1 CD70+ AML cell line; assay: ADCC assay with NK effector cells, NOMO-1; format: cell-based, human; settings: effector-to-target ratio 10:1, 4 h
# Procedure: ADCC activity was evaluated using two CD70+AML cell lines as an ADCC target (FIGS. 3A and 3B). The AML cell lines, MOLM-13 (FIG. 3A) and NOMO-1 (FIG. 3B), were labeled and mixed with titrations of test antibodies or isotype control. Effector cells were isolated from cryopreserved normal donor PBMC using the EasySep Human NK Cell Enrichment Kit (Stem Cell Technologies). Effector cells were added at an effector-to-target cell ratio of 10:1 with […]. After a 4-h incubation, the percent specific cell lysis was calculated.
# AML cell lines were grown in appropriate growth medium while incubating at 37° C. in 5% CO2. Suspended cells were counted using ViCell XR cell counter. The required volume of cells was mixed with fresh growth medium and plated at seeding densities of 0.5 M/mL.
# The following protocol was used to assess ADCC activity: • 1. Two vials of huPBMCs were thawed in the 37° C. waterbath and resuspended in 1% FBS-RPMI media. Cells were spun down and then NK cells were isolated using the EasySep human NK cell enrichment kit following the manufacturer's protocol. • 2. […] Absorbance per well was measured using the SpectraMax 190 plate reader at 490 nm and the acquired values were converted to text file and exported to Excel and into GraphPad Prism for further data analysis. • 9. […]
# [2] = test system: Raji NHL Burkitt Lymphoma model; assay: Survival in the Raji NHL Burkitt Lymphoma mouse model; format: in vivo, SCID mice; settings: for median survival post implant: untreated 20 days
# [3] = test system: NOMO-1 CD70+ target cells; assay: ADCP with monocyte-derived macrophages, NOMO-1; format: cell-based, human; settings: flow cytometry, antibody dose-dependent
# Procedure: Phagocytosis of fluorescently labeled target cells was determined by flow cytometry. Phagocytosis was measured for the appearance of double-labeled coincident events (fluorescent target cells) and anti-CD11c positivity to identify monocyte/macrophages.
# The following protocol was used to assess […] activity on AML cell lines: • 1. Target cells were labeled using the PKH26 Red Fluorescent Cell Linker Mini Kit (Sigma Aldrich) and following the manufacturer's instructions. • 2. Cells (4000 cells/well) were incubated with the indicated test articles for 30 minutes, washed and resuspended in RPMI plus 10% ultra-low IgG FBS. • 3. PBMC-derived macrophages (100,000 cells/well), generated by incubating PBMC-derived monocytes with 500 U/mL (50 ng/mL) GM-CSF for 10-12 days, were added to the target cells and incubated at 37° C. for 2 hours. • 4. Plates were centrifuged and cells resuspended in 100 μl of APC-CD11 antibody (macrophage marker) and incubated on ice for 30 minutes. • 5. Cells were washed, resuspended in PBS and analyzed by flow cytometry to determine the percentage of phagocytosis
molecule,measurement,setting,value
"SEA-CD70: humanized, nonfucosylated monoclonal IgG1 antibody targeting CD70 (nonfucosylated h1F6) (antibody, chains of the INN, looked up, V domains shown, nonfucosylated) VH: QVQLVQSGAEVKKPGASVKVSCKASGYTFTNYGMNWVRQAPGQGLKWMGWINTYTGEPTYADAFKGRVTMTRDTSISTAYMELSRLRSDDTAVYYCARDYGDYGMDYWGQGTTVTVSS VL: DIVMTQSPDSLAVSLGERATINCRASKSVSTSGYSFMHWYQQKPGQPPKLLIYLASNLESGVPDRFSGSGSGTDFTLTISSLQAEDVAVYYCQHSREVPWTFGQGTKVEIK",lysis of target cells in ADCC assay,[1],induced lysis of two CD70 positive AML cell lines in a dose-dependent fashion
same,median survival post implant,[2]; 0.3 mg/kg Q4dx4 intraperitoneally,36.5 days
same,median survival post implant,[2]; 1 mg/kg Q4dx4 intraperitoneally,68 days
same,total number of animals in group,"[2]; 1 mg/kg, day 0",8
same,total number of animals in group,"[2]; 1 mg/kg, day 23",8
same,total number of animals in group,"[2]; 1 mg/kg, day 30",7
same,total number of animals in group,"[2]; 1 mg/kg, day 54",6
same,total number of animals in group,"[2]; 1 mg/kg, day 61",5
same,total number of animals in group,"[2]; 1 mg/kg, day 75",4
same,total number of animals in group,"[2]; 1 mg/kg, day 90",3
same,median survival post implant,[2]; 3 mg/kg Q4dx4 intraperitoneally,69.5 days
same,total number of animals in group,"[2]; 3 mg/kg, day 0",8
same,total number of animals in group,"[2]; 3 mg/kg, day 28",8
same,total number of animals in group,"[2]; 3 mg/kg, day 33",7
same,total number of animals in group,"[2]; 3 mg/kg, day 64",5
same,total number of animals in group,"[2]; 3 mg/kg, day 75",4
same,total number of animals in group,"[2]; 3 mg/kg, day 90",3
same,survival compared to untreated mice,"[2]; 0.3, 1 and 3 mg/kg",increased survival
same,total number of animals in group,"[2]; .3 mg/kg, day 0",8
same,total number of animals in group,"[2]; .3 mg/kg, day 5",8
same,total number of animals in group,"[2]; .3 mg/kg, day 33",7
same,total number of animals in group,"[2]; .3 mg/kg, day 35",6
same,total number of animals in group,"[2]; .3 mg/kg, day 36",5
same,total number of animals in group,"[2]; .3 mg/kg, day 37",4
same,total number of animals in group,"[2]; .3 mg/kg, day 69",3
same,total number of animals in group,"[2]; .3 mg/kg, day 90",2
same,phagocytosis of antibody-coated target cells by macrophages,[3],readily phagocytosed target cells
